Like-named read-outs stand apart in the source and are kept apart here. Positions of bridges follow the written chain, without caps; N, C: chain ends. Non-standard residues stand in square brackets, D forms with d. Residues, ends and D or L forms follow the SMILES beside them. Chains are numbered I, II in the order given. *: point of attachment. DOTA = O=C(O)CN1CCN(CC(=O)O)CCN(CC(=O)*)CCN(CC(=O)O)CC1; PEG4 = NCCOCCOCCOCCOCCC(=O)O

In one data set the test system is ES2 cells. As to the kind of experiment: In vitro cell binding/uptake assay, ES2 cells. The class given is cell-based, human. To be noted: 37 KBq per well, 37°C.
Data set [1] can be described thus: MicroPET imaging and blocking, ES2 tumor-bearing nude mice. The note with it: female, BALB/c nude, mouse, in vivo, iv, total radioactivity. The method, then: (§1) The human OVCA ES2 and SKOV3 cells were obtained from Nanjing Keygen Biotech Co., Ltd. (Nanjing, China). ES2 cells were maintained as monolayer cultures in McCoy's medium 5A supplemented with 10% fetal bovine serum (FBS), and SKOV3 cells were cultured in RPMI-1640 medium supplemented with 10% FBS. Both cell lines were incubated at 37°C in a humidified atmosphere containing 5% CO2. Cells in log phase were harvested by trypsinization, washed with PBS twice and adjusted to 5×10^7/mL in PBS. A volume of 0.1 mL single-cell suspension was subcutaneously injected into the front flank of each female […] nude mouse (~4-6 weeks old, body weight of 18-25 g; Slac Laboratory Animal, Shanghai, China). Animal models were used for PET imaging experiments when xenografts grew to 500-1,000 mm^3. All animal-related studies were approved by the Institutional Animal Care and Use Committee of Soochow University.
(§2) Two groups of female Balb/c nude mice (n=6/group) bearing ES2 tumors were used to conduct static microPET imaging with an Inveon microPET scanner (Siemens Medical Solutions, Erlangen, Germany). The first group was injected with 7.4 MBq ^68Ga-DOTA-c(NGR)2 via tail vein under anesthesia with 1%-2% isoflurane, and a series of static image data, 10 min for each time point, were collected at 30 min, 1, 1.5, and 2 h post injection. For blocking studies, the second group of mice was injected with 100 μg unlabeled peptide in 100 μL saline via tail vein, immediately followed by administration of ^68Ga-DOTA-c(NGR)2, and then images were acquired at 30 min, 1, 1.5 and 2 h post-injection, each for 10 min. The obtained images were processed using Siemens Inveon Research Workplace 4.0 (IRW 4.0) and reconstructed using three-dimensional ordered-subset expectation maximization. Regions of interest (ROIs) were drawn over the tumor (T) and muscle of the contralateral forelimb, and the latter served as the background (B). Moreover, %ID/g of tumors and the T/B ratio were determined. The same studies were repeated in female Balb/c nude mice bearing SKOV3 tumors without the blocking experiments.

A short description of data set [2]: In vitro stability in saline/PBS at room temperature (radiochemical purity). The class given is physicochemical. The note with it: ~3.7 MBq tracer in saline (method: PBS), 3 h of incubation, radio-HPLC.
Procedure: A volume of 80 μL 1 mol/L HEPES (pH 5.0) was added to 200 μL ^68GaCl3 (37-74 MBq) eluent, and then the mixture was incubated with 40 μL DOTA-c(NGR)2 stock solution in a water bath at 95°C for 10 min. Quality control was performed by radio-HPLC (Agilent Technologies, Santa Clara, CA, USA) with a VP-ODS C18 column (Shimadzu, Kyoto, Japan) and an online radioactivity detector (Zonkia Scientific Instruments Co., Ltd., Anhui Province, China). The mobile phase was composed of solvent A, 0.1% trifluoroacetic acid (TFA) in water, and solvent B, 0.1% TFA in acetronitrile. The flow rate was set at 1 mL/min, and the UV wavelength was set at 220 nm. The mobile phase was gradiently changed from 20% solvent B to 30% solvent B in 20 min.
To evaluate the in vitro stability, ~3.7 MBq of ^68Ga-DOTA-c(NGR)2 was incubated in phosphate-buffered saline (PBS) at room temperature or bovine serum at 37 °C, respectively. The radiochemical purity was determined at time points of 30 min and 1, 2 and 3 h.
The test system of another data set is SKOV3 cells. Description: In vitro cell binding/uptake assay, SKOV3 cells. The class given is cell-based, human. The note with it: 37 KBq per well, 1×10^6 cells/well, 37°C, time points 5 min to 2 h, gamma counter, mean ± SD.
Data set [3] is described as follows: in vivo. To be noted: female, BALB/c nude, mouse, iv, 7.4 MBq, total radioactivity. The method, then:
as §1, §2

A short description of data set [4]: in vivo. The note with it: ICR, mouse, iv, 3.7 MBq, total radioactivity.
Procedure: (§3) Biodistribution studies were performed using 30 normal ICR (Institute of Cancer Research) mice (18-30 g; age, 4 weeks). […] The blood, muscle and other organs of interest (brain, heart, liver, lungs, spleen, pancreas, kidneys, stomach, small intestine and femur) were immediately harvested, weighed and counted with a gamma counter. Data were normalized to the time of injection and expressed as percent injected dose per gram (% ID/g).

Procedure for normal ICR mice: as §3

On to `N=C(N)NCCC[C@@H]1NC(=O)CNC(=O)[C@H](CC(N)=O)NC(=O)[C@@H](NC(=O)CCOCCOCCOCCOCCNC(=O)CC[C@H](NC(=O)CCOCCOCCOCCOCCNC(=O)CN2CCN(CC(=O)O)CCN(CC(=O)O)CCN(CC(=O)O)CC2)C(=O)NCCOCCOCCOCCOCCC(=O)N[C@H]2CSSC[C@@H](C(=O)N[C@@H](Cc3ccc(O)cc3)C(=O)O)NC(=O)[C@H](CCCNC(=N)N)NC(=O)CNC(=O)[C@H](CC(N)=O)NC2=O)CSSC[C@@H](C(=O)N[C@@H](Cc2ccc(O)cc2)C(=O)O)NC1=O` [^68Ga-DOTA-c(NGR)2, metal not drawn] (I: {DOTA-PEG4}-E[PEG4]CNGRCY-OH / II: [PEG4]CNGRCY-OH; amide I:1-II:N; disulfide I:3-I:7, II:2-II:6), for which the “decrease of kidney uptake from peak” value in the data set with normal ICR mice (30 min post-injection versus 5 min) is given as “more than 50%”; in the data set on normal ICR mice (120 min post-injection versus 5 min) it was > 85%. For the same molecule, the “highest binding to ES2 cells” value in the data set on ES2 cells (1×10^6 cells/well, after 2 h of incubation, gamma counter, mean ± SD) was 3.00% ± 0.59. Moreover, the “time to almost saturated binding to ES2 cells” value in the data set with ES2 cells is listed as ≤ 30 min. Further, the tissue uptake at 1 h came to 0.62 ± 0.09 %ID/g in data set [1] (7.4 MBq); 0.16 ± 0.03 %ID/g in data set [1] (microPET, 100 μg unlabeled peptide i.v. immediately before tracer, 1 h post-injection, n=6, mean ± SD, read-out: uptake in ES2 tumors in the blocking experiment); 0.32 ± 0.03 %ID/g in the data set “in vivo [3]”; 0.31 ± 0.05 %ID/g in the data set “in vivo [4]” (blood). Besides, the tissue uptake at 1.5 h worked out at 0.53 ± 0.08 %ID/g in data set [1] (7.4 MBq); 0.14 ± 0.02 %ID/g in data set [1] (microPET, 100 μg unlabeled peptide i.v. immediately before tracer, 1.5 h post-injection, n=6, mean ± SD, read-out: uptake in ES2 tumors in the blocking experiment); 0.24 ± 0.05 %ID/g in the data set “in vivo [3]”. Besides, the tissue to tissue ratio at 1 h in data set [1] was determined as 10.3 ± 0.26; in the data set “in vivo [3]” it was 3.99 ± 0.18. The tissue to tissue ratio at 1.5 h in data set [1] was determined as 8.04 ± 1.75; in the data set “in vivo [3]” it was 4.24 ± 0.73. In addition, the “radiochemical purity after incubation in saline” value in data set [2] is > 96%. The “highest binding to SKOV3 cells” value in the data set with SKOV3 cells is listed as 1.79% ± 0.34. In addition, the tissue uptake at 5 min is 7.44 ± 1.64 %ID/g in “in vivo [4]” (blood) and 16.7 ± 5.8 %ID/g in “in vivo [4]” (kidney).

These data come from publication PMC7738837, “Synthesis and evaluation of ^68Ga-labeled dimeric cNGR peptide for PET imaging of CD13 expression with ovarian cancer xenograft” (Journal of Cancer, 2021).
